Measured values taken from patent US20220324939A1 (Regeneron, published 2022).
Residue numbers refer to the chain shown, from its start.

B1: PN45557 (TCR, V domains shown)
V domain 1: AQKITQTQPGMFVQEKEAVTLDCTYDTSDPSYGLFWYKQPSSGEMIFLIYQGSYDQQNATEGRYSLNFQKARKSANLVISASQLGDSAMYFCAMREGPGSGNTGKLIFGQGTTLQVKP
V domain 2: NAGVTQTPKFRILKIGQSMTLQCAQDMNHNYMYWYRQDPGMGLKLIYYSVGAGITDKGEVPNGYNVSRSTTEYFPLRLELAAPSQTSVYFCASSYSEWQNYGYTFGSGTRLTVV
notes: full-length chains on transfected CHO cells; also called TCR No. 52
B2: PN45418 (TCR, V domains shown)
V domain 1: EDQVTQSPEALRLQEGESSSLNCSYTVSGLRGLFWYRQDPGKGPEFLFTLYSAGEEKEKERLKATLTKKESFLHITAPKPEDSATYLCAVQPSYSGAGSYQLTFGKGTKLSVIP
V domain 2: EAQVTQNPRYLITVTGKKLTVTCSQNMNHEYMSWYRQDPGLGLRQIYYSMNVEVTDKGDVPEGYKVSRKEKRNFPLILESPSPNQTSLYFCASSPGTGGFSPLHFGNGTRLTVT
notes: stained with anti-mouse TCR constant region H57-597; full-length chains on transfected CHO cells; also called TCR No. 46
B3: PN45460 (TCR, V domains shown)
V domain 1: GNSVTQMEGPVTLSEEAFLTINCTYTATGYPSLFWYVQYPGEGLQLLLKATKADDKGSNKGFEATYRKETTSFHLEKGSVQVSDSAVYFCALSDTRDDKIIFGKGTRLHILP
V domain 2: B2 V domain 2 with N7S
notes: full-length chains on transfected CHO cells; also called TCR No. 49
B4: PN45515 (TCR, V domains shown)
V domain 1: DAKTTQPPSMDCAEGRAANLPCNHSTISGNEYVYWYRQIHSQGPQYIIHGLKNNETNEMASLIITEDRKSSTLILPHATLRDTAVYYCIVRPYNAGNNRKLIWGLGTSLAVNP
V domain 2: DVKVTQSSRYLVKRTGEKVFLECVQDMDHENMFWYRQDPGLGLRLIYFSYDVKMKEKGDIPEGYSVSREKKERFSLILESASTNQTSMYLCASSFGGGYYGYTFGSGTRLTVV
notes: stained with anti-mouse TCR constant region H57-597; full-length chains on transfected CHO cells; also called TCR No. 39
B5: PN45489 (TCR, V domains shown)
V domain 1: TQLLEQSPQFLSIQEGENLTVYCNSSSVFSSLQWYRQEPGEGPVLLVTVVTGGEVKKLKRLTFQFGDARKDSSLHITAAQPGDTGLYLCAEDGGSQGNLIFGKGTKLSVKP
V domain 2: B4 V domain 2 with S7T, F95L, G96Q, G98R
notes: stained with anti-mouse TCR constant region H57-597; full-length chains on transfected CHO cells; also called TCR No. 48
B6: PN45494 (TCR, V domains shown)
V domain 1: B3 V domain 1 with M7I, I100T
V domain 2: B4 V domain 2 with F95L, G96Q, G98R
notes: full-length chains on transfected CHO cells; also called TCR No. 50
B7: PN45481 (TCR, V domains shown)
V domain 1: B3 V domain 1
V domain 2: B4 V domain 2 with F95L, G96Q, G98R
notes: full-length chains on transfected CHO cells; also called TCR No. 54
B8: PN45593 (TCR, V domains shown)
V domain 1: AQKITQTQPGMFVQEKEAVTLDCTYDTSDPSYGLFWYKQPSSGEMIFLIYQGSYDQQNATEGRYSLNFQKARKSANLVISASQLGDSAMYFCAMREGPGNNARLMFGDGTQLVVKP
V domain 2: NAGVTQTPKFRVLKTGQSMTLLCAQDMNHEYMYWYRQDPGMGLRLIHYSVGEGTTAKGEVPDGYNVSRLKKQNFLLGLESAAPSQTSVYFCASSYWDRGSPLHFGNGTRLTVT
notes: stained with anti-mouse TCR constant region H57-597; full-length chains on transfected CHO cells; also called TCR No. 40
B9: PN45581 (TCR, V domains shown)
V domain 1: B8 V domain 1
V domain 2: EAQVTQTPRYLITVTGKKLTVTCSQNMNHEYMSWYRQDPGLGLRQIYYSMNVEVTDKGDVPEGYKVSRKEKRNFPLILESPSPNQTSLYFCASSLWTGGGYTFGSGTRLTVV
notes: stained with anti-mouse TCR constant region H57-597; full-length chains on transfected CHO cells; also called TCR No. 44
B10: PN45546 (TCR, V domains shown)
V domain 1: AQTVTQSQPEMSVQEAETVTLSCTYDTSESDYYLFWYKQPPSRQMILVIRQEAYKQQNATENRFSVNFQKAAKSFSLKISDSQLGDAAMYFCAYRSGAGGTSYGKLTFGQGTILTVHP
V domain 2: DAGVTQSPTHLIKTRGQQVTLRCSPISGHKSVSWYQQVLGQGPQFIFQYYEKEERGRGNFPDRFSARQFPNYSSELNVNALLLGDSALYLCASSIRDTYGYTFGSGTRLTVV
notes: full-length chains on transfected CHO cells; also called TCR No. 53

How the values were obtained:
[1] = target: T1, soluble HLA-A2 MAGE-A8 (…) tetramer (human); test: flow cytometry, HLA-A2 MAGE-A8 (…) tetramer staining of CHO cells transfected with the TCR
T1 construct: Bought tetramer reagent; also called MAGE-A8/HLA tetramer reagent; HLA-A02:01 MAGE-A8 tetramer
Description: (§1) Samples were then analyzed on an LSRFortessa X-20 (BD Biosciences, San Jose, Calif.). […] However, a more stringent cutoff, such as 3%, could be used to separate out Ag+ TCRs that behave better in the binding assay. Ag+ TCRs were determined by Next Generation Sequencing.

[2] = target: T2, MAGE-A4 peptide on HLA-A*02:01 (human); test: multimer staining
T2 peptide: GVYDGREHTV

[3] = target: T3, MAGE-A8 peptide on HLA-A*02:01 (human); test: multimer staining
T3 peptide: GLYDGREHSV

[4] = target: T4, soluble HLA-A2 MAGE-A4 (…) tetramer (human); test: flow cytometry tetramer staining; % with MAGE-A4 tetramer divided by % with MAGE-A8 tetramer (reference)
T4 construct: Bought tetramer reagent; also called MAGE-A4/HLA tetramer reagent; HLA-A02:01 MAGE-A4 tetramer
Description: as §1

[5] = target: T4, soluble HLA-A2 MAGE-A4 (…) tetramer; test: flow cytometry, HLA-A2 MAGE-A4 (…) tetramer staining of CHO cells transfected with the TCR
Description: as §1

Binder	% tetramer in Ag+ gate (MAGE-A8) [1] [%]	binding result [2]	binding result [3]	MAGE-A4/MAGE-A8 (ratio of % tetramer in Ag+ gate) [4]	% tetramer in Ag+ gate (MAGE-A4) [5] [%]
B1	66.3	recognises	recognises	1.43	94.7
B2	1.24	recognises	–	9.92	12.3
B3	16.7	recognises	recognises	2.08	34.7
B4	–	recognises	no recognition	1150	11.5
B5	6.39	recognises	recognises	2.5	16
B6	1.88	recognises	recognises	1.97	3.7
B7	72.9	recognises	recognises	1.21	87.9
B8	–	recognises	–	991	56.5
B9	–	recognises	–	18.7	3.18
B10	60.6	recognises	recognises	1.23	74.8
